Target: antigens on human iPSC-derived brain microvascular endothelial cells (BMECs) (human)
Test: flow cytometry of BMECs with phage, anti-M13 detection

For “phage displaying anti-botulinum neurotoxin scFv”, the geometric mean (fluorescence) was 3.16.
